Test results as given in publication PMC11997335.
Where two headings read alike, the source gives them in different places.

Assays:
Assay in all cases: single-molecule TIRF real-time association assay
[1] = molecular target: human cytoplasmic dynein-1 complex (human) (UniProt Q14204)
[2] = molecular target: human cytoplasmic dynein-1 complex (human) (UniProt Q14204); remark: listed apart in the source
[3] = molecular target: human cytoplasmic dynein-1 complex (human) (UniProt Q14204); remark: listed apart in the source

Substance	fraction of dynein molecules bound by the end of data acquisition [1]	koff [1]	percent of complexes long-lived (>80 s) [1]	percent of complexes medium-lived (20–80 s) [1]	percent of complexes short-lived (<20 s) [1]	koff [2]	percent of complexes long-lived (>80 s) [2]	dwell time, major peak [2]	kon [2]	percent of binding events short-lived (<20 s) [2]	percent of complexes medium-lived (20–80 s) [2]	percent of complexes short-lived (<20 s) [2]	kon [3]
BicD2 (amino acids 1–598) with N-terminal HaloTag (from UniProt Q8TD16 1-598) (domain or fragment)	< 25%	0.038 s⁻¹	6%	22%	72%	0.137 s⁻¹	37%						
NINL (amino acids 1–702) with N-terminal HaloTag (from UniProt Q9Y2I6 1-702) (domain or fragment)	60%					0.0627 s⁻¹	16%	5 s	9.21e+06 M⁻¹ s⁻¹	32%	37%	47%	7.97e+06 M⁻¹ s⁻¹
dynactin complex purified from HEK293T cells stably expressing p62-Halo-3xFLAG (from UniProt Q9UJW0;Q14203;P61163)							9%	5 s		30%	22%	69%	
